Experiments:
[1] = target: T1, human/cynomolgus monkey ROR1 protein (Acro Biosystems, Cat. No.: RO1-H522y) (human/cynomolgus monkey, UniProt Q01973 30-403); experiment: SPR (Biacore), antibody captured on anti-hIgG CM5 chip, ROR1 protein as analyte, method of Example 5
T1 construct: Bought SPR analyte

[2] = target: T2, ROR1 naturally expressed on human tumor cell lines (A549, Jeko-1, SW620, PA-1) (human, UniProt Q01973 30-937); experiment: FACS on SW620 cells naturally expressing ROR1
T2 construct: whole, on cells; also called cells expressing ROR1

[3] = target: T2, ROR1 naturally expressed on human tumor …; experiment: FACS on PA-1 cells naturally expressing ROR1
[4] = target: T2, ROR1 naturally expressed on human tumor …; experiment: FACS on Jeko-1 cells naturally expressing ROR1
[5] = target: T2, ROR1 naturally expressed on human tumor …; experiment: FACS on Jeko-1 cells naturally expressing ROR1; remark: listed apart in the source
[6] = target: T2, ROR1 naturally expressed on human tumor …; experiment: FACS on SW620 cells naturally expressing ROR1; remark: listed apart in the source
[7] = target: T2, ROR1 naturally expressed on human tumor …; experiment: FACS on PA-1 cells naturally expressing ROR1; remark: listed apart in the source
[8] = target: T2, ROR1 naturally expressed on human tumor …; experiment: FACS on PA-1 cells naturally expressing ROR1; remark: listed apart in the source
[9] = target: T2, ROR1 naturally expressed on human tumor …; experiment: FACS on Jeko-1 cells naturally expressing ROR1; remark: listed apart in the source
[10] = target: T2, ROR1 naturally expressed on human tumor …; experiment: FACS on SW620 cells naturally expressing ROR1; remark: listed apart in the source
[11] = target: T1, human/cynomolgus monkey ROR1 protein …; experiment: SPR (Biacore), antibody captured on anti-hIgG CM5 chip, ROR1 protein as analyte, 1:1 model
[12] = target: T2, ROR1 naturally expressed on human tumor …; experiment: FACS on SW620 cells naturally expressing ROR1; remark: listed apart in the source
[13] = target: T2, ROR1 naturally expressed on human tumor …; experiment: FACS on Jeko-1 cells naturally expressing ROR1; remark: listed apart in the source
[14] = target: T2, ROR1 naturally expressed on human tumor …; experiment: FACS on A549 cells naturally expressing ROR1

T1 sequence (Q01973 30-403 limits assumed): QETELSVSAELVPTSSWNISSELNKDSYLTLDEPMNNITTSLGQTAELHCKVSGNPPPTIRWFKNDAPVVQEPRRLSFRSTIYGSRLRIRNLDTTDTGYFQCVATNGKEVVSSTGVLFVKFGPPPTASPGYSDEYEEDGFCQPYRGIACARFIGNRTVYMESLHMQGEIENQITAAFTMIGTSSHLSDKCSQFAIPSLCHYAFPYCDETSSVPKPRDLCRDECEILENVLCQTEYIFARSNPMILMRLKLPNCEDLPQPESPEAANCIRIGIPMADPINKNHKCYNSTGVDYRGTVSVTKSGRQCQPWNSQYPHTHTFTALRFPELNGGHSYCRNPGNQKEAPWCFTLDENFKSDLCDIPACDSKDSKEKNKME
T2 sequence (Q01973 30-937): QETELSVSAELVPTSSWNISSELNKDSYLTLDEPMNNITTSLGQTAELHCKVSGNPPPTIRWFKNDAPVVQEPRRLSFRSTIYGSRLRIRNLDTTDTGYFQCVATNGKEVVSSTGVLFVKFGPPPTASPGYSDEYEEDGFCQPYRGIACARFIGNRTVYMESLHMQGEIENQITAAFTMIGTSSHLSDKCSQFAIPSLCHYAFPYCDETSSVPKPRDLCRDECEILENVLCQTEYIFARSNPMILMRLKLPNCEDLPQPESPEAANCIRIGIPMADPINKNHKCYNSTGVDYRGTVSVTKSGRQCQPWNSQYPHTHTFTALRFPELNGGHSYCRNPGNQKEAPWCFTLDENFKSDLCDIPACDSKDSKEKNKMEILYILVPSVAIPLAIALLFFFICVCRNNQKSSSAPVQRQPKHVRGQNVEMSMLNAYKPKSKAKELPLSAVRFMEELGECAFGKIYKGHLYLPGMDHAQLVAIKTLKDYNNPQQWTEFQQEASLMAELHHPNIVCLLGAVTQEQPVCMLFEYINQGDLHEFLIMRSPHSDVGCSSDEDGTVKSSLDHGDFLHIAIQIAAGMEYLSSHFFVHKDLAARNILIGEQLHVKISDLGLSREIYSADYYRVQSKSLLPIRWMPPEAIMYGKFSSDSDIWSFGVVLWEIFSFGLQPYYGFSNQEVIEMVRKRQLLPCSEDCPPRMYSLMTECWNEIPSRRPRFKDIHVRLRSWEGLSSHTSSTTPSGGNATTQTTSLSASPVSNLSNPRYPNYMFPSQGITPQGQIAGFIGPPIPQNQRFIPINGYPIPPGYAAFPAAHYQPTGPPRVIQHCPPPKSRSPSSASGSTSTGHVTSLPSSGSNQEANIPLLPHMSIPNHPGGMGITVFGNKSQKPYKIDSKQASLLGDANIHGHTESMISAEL

Binder	Kd [1] [nM]	koff [1] [s⁻¹]	kon [1] [M⁻¹ s⁻¹]	EC50 [8] [nM]	Top (MFI) [8] [MFI]	EC50 [9] [nM]	Top (MFI) [9] [MFI]	EC50 [10] [nM]	Top (MFI) [10] [MFI]	Kd [11] [nM]	koff [11] [s⁻¹]	kon [11] [M⁻¹ s⁻¹]	EC50 [12] [nM]	Top (MFI) [12] [MFI]	EC50 [13] [nM]	Top (MFI) [13] [MFI]	EC50 [14] [nM]	Top (MFI) [14] [MFI]	further results
hz29H5D8-3.1 (antibody, human IgG1, kappa, V domains shown, Humanized, human IgG1/kappa) VH: QVQLVQSGAEVKKPGSSVKVSCKASGYTFTNYGISWVRQAPGQGLEWMGEIYPRSVNTYYAQKFQGRVTITADKSTSTAYMELSSLRSEDTAVYYCARHYYGSSLDYWGQGTLVTVSS VL: DIQMTQSPSSLSASVGDRVTITCITSSDIEDDMNWYQQKPGKAPKLLISEGNSLRPGVPSRFSSSGYGTDFTFTISSLQPEDIATYYCLQSDNIFTFGQGTKVEIKR	0.112	0.000218	1.95e+06																EC50 [2]: 0.011 nM; Top (MFI) [2]: 30700 MFI; EC50 [3]: 0.092 nM; Top (MFI) [3]: 247000 MFI; EC50 [4]: 0.014 nM; Top (MFI) [4]: 87700 MFI
hz29H5D8-2.1 (antibody, human IgG1, kappa, V domains shown, Humanized, human IgG1/kappa) VH: QVQLVQSGAEVKKPGSSVKVSCKASGYTFTNYGISWVRQAPGQGLEWMGEIYPRSVNTYYAQKFQGRVTITADKSTSTAYMELSSLRSEDTAVYYCARHYYGSSLDYWGQGTLVTVSS VL: DIQMTQSPSSLSASVGDRVTITCITSSDIEDDMNWYQQKPGKAPKLLIYEGNSLRPGVPSRFSSSGYGTDFTFTISSLQPEDIATYYCLQSDNIFTFGQGTKVEIKR	0.589	0.000925	1.57e+06																EC50 [2]: 0.015 nM; Top (MFI) [2]: 28600 MFI; EC50 [3]: 0.126 nM; Top (MFI) [3]: 239000 MFI; EC50 [4]: 0.015 nM; Top (MFI) [4]: 85000 MFI
hz135A2B10-1.2 (antibody, human IgG1, kappa, V domains shown, Humanized, human IgG1/kappa) VH: QVQLVESGGGLVQPGGSLRLSCAASGFAFSTYGMAWVRQAPGKGLEWVASIHKGGFSTYYPDNVKGRFTISRDNDKNSLYLQMNSLRAEDTAVYYCIRHDWDGAMDYWGQGTLVTVSS VL: DIQMTQSPSSLSASVGDRVTITCKASQDINSYLNWYQQKPGKAPKTLIYRANRLVDGVPSRFSGSGSGQDYTLTISSLQPEDFATYYCLQFDEFPYTFGQGTKVEIKR	0.569	0.000596	1.05e+06																EC50 [5]: 0.022 nM; Top (MFI) [5]: 89700 MFI; EC50 [6]: 0.034 nM; Top (MFI) [6]: 30400 MFI; EC50 [7]: 0.217 nM; Top (MFI) [7]: 238000 MFI
hz137G11D10-2.2 (antibody, human IgG1, kappa, V domains shown, Humanized, human IgG1/kappa) VH: QVQLQESGPGLVKPSQTLSLTCTVSGYSITSDYAWNWIRQHPGKGLEWIGYITYSASTSYNPSLKSRVTISRDTSKNQFFLKLSSVTAADTAVYYCARGAGTYYFDYWGQGTLVTVSS VL: DIQMTQSPSSLSASVGDRVTITCITSTDIDEDMNWYQQKPGKAPKLLIYEDNSLRPGVPSRFSGSGYGTDFTLTISSLQPEDFATYYCLQTNNLPLTFGQGTKVEIKR	0.343	0.000811	2.37e+06	0.061	233000	0.012	86100	0.009	28500										
hz137G11D10-3.1 (antibody, human IgG1, kappa, V domains shown, Humanized, human IgG1/kappa) VH: QVQLQESGPGLVKPSQTLSLTCTVSGYSITSDYAWNWIRQHPGKGLEWIGYITYSASTSYNPSLKSRVTISRDTSKNQFSLKLSSVTAADTAVYYCARGAGTYYFDYWGQGTLVTVSS VL: DIQMTQSPSSLSASVGDRVTITCITSTDIDEDMNWYQQKPGKAPKLLISEDNSLRPGVPSRFSSSGYGTDFTLTISSLQPEDFATYYCLQTNNLPLTFGQGTKVEIKR	0.172	0.000492	2.86e+06	0.063	231000	0.012	87000	0.009	30900										
hz137G11D10-3.2 (antibody, human IgG1, kappa, V domains shown, Humanized, human IgG1/kappa) VH: QVQLQESGPGLVKPSQTLSLTCTVSGYSITSDYAWNWIRQHPGKGLEWIGYITYSASTSYNPSLKSRVTISRDTSKNQFFLKLSSVTAADTAVYYCARGAGTYYFDYWGQGTLVTVSS VL: DIQMTQSPSSLSASVGDRVTITCITSTDIDEDMNWYQQKPGKAPKLLISEDNSLRPGVPSRFSSSGYGTDFTLTISSLQPEDFATYYCLQTNNLPLTFGQGTKVEIKR	0.16	0.000469	2.92e+06	0.054	225000	0.012	86800	0.011	30700										
ch3G9B1 (antibody, human IgG1, kappa, V domains shown, also called chimeric antibody of m3G9B1) VH: QVQLQQSGTELARPGASVKLSCKASGYTFTSYGITWVKQRTGQGLEWIGEIYPRSGNTYFNEKFKGKATLTADKSSSTAYMELRSLTSEDSAVYFCARDRTGTGVDDYWGQGTTLTVSS VL: DIVLTQSPASLSMAIGEKVTIRCITNTDIDDDMSWYQQKPGEPPNLLISEGNTLRPGVPSRFSSSGYGRDFVFTIENMLSEDVADYYCLQSNNLPYTFGGGTKLEIKR										27.1	0.0639	2.36e+06	0.048	20400	0.01	61100	0.03	65200	
ch29H5D8 (antibody, human IgG1, kappa, V domains shown, also called chimeric antibody of m29H5D8) VH: EVQLQQSGAELARPGASVKLSCKASGYTFTNYGISWVKQRTGQGLEWIGEIYPRSVNTYYSAKFKGKATLTADKSSSTAYMELRSLTSEDSAVYFCARHYYGSSLDYWGQGTTLTVSS VL: DIVLTQSPASLSVATGEKVTIRCITSSDIEDDMNWYQQKPGEPPKLLISEGNSLRPGVPSRFSSSGYGTDFVFTIENTLSEDVADYYCLQSDNIFTFGSGTKLEIKR										0.669	0.00248	3.7e+06	0.01	27000	0.011	70400	0.016	78500	
hz137G11D10-1.1 (antibody, human IgG1, kappa, V domains shown, Humanized, human IgG1/kappa) VH: QVQLQESGPGLVKPSQTLSLTCTVSGYSITSDYAWNWIRQHPGKGLEWIGYITYSASTSYNPSLKSRVTISRDTSKNQFSLKLSSVTAADTAVYYCARGAGTYYFDYWGQGTLVTVSS VL: ETTLTQSPAFMSATPGDKVNISCITSTDIDEDMNWYQQKPGEAAKLIISEDNSLRPGIPPRFSSSGYGTDFTLTINNIESEDAAYYFCLQTNNLPLTFGQGTKVEIKR	0.145	0.000539	3.72e+06	0.075	244000	0.015	93200	0.013	32600										
hz137G11D10-1.2 (antibody, human IgG1, kappa, V domains shown, Humanized, human IgG1/kappa) VH: QVQLQESGPGLVKPSQTLSLTCTVSGYSITSDYAWNWIRQHPGKGLEWIGYITYSASTSYNPSLKSRVTISRDTSKNQFFLKLSSVTAADTAVYYCARGAGTYYFDYWGQGTLVTVSS VL: ETTLTQSPAFMSATPGDKVNISCITSTDIDEDMNWYQQKPGEAAKLIISEDNSLRPGIPPRFSSSGYGTDFTLTINNIESEDAAYYFCLQTNNLPLTFGQGTKVEIKR	0.105	0.000414	3.94e+06	0.092	248000	0.016	92500	0.013	31500										
ch135A2B10 (antibody, human IgG1, kappa, V domains shown, also called chimeric antibody of m135A2B10) VH: DVKLVESGGGLVTPEGSLKLSCAASGFAFSTYGMAWVRQTPEKRLEWVASIHKGGFSTYYPDNVKGRFTISRDNDKNTLYLQMSSLKSEDTAMYYCIRHDWDGAMDYWGQGTSVTVSS VL: DIVLTQSPSSMYASLGERVTITCKASQDINSYLNWFQQKPGKSPKTLIYRANRLVDGVPSRFSGSGSGQDYSLTISSLEYEDLGIYYCLQFDEFPYTFGGGTKLEIKR										0.586	0.000551	941000	0.06	29800	0.037	71900	0.094	87800	
ch137G11D10 (antibody, human IgG1, kappa, V domains shown, also called chimeric antibody of m137G11D10) VH: DVQLQESGPGLVKPSQSLSLTCTVTGYSITSDYAWNWIRQFPGNKLEWMGYITYSASTSYNPSLKSRISITRDTSKNQFFLQLNSVTTEDTATYYCARGAGTYYFDYWGQGSTLTVSS VL: DIVLTQSPASLSVATGEKVTIRCITSTDIDEDMNWYQQKPGEPPKLLISEDNSLRPGVPSRFSSSGYGTDFVLTIENTLSEDVADYYCLQTNNLPLTFGAGTKLEIKR										0.61	0.00315	5.16e+06	0.01	27300	0.012	71100	0.02	82800	
